According to the supplement of paper PMC10201428:
± gives the standard deviation of the averaged measurements.

B1: library; a variant is named by its letters at N, in order (parent)
chain: AATGTTGTTGATGCAACCATAAAGTGATATTTAATAATTATTTATAATCAGCAACTTAACCACAAAACAACCATATATTGATATNTCACAAAACAACCATAANTTGATATTTTTGTGAATCGAGTATTTCAGCAAAACTACTGCAGTAAGAA

Experiments:
[1] = variants of: B1; test: relative integration efficiency (T-LR orientation) vs wild-type transposon end (log2 (normalized fold change)); transposon end mutated: left end; higher = more efficient transposition; conditions: with VchCAST RNA-guided transposition machinery (E. coli BL21(DE3) host, lacZ target)
In short: (§1)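 Barcoded pools of 1549 left-end or 1849 right-end transposon variants were cloned into a pUC57 mini-transposon donor. Each pool was co-transformed with a T7-driven effector plasmid (CRISPR array, tniQ-cas8-cas7-cas6, tnsA-tnsB-tnsC) into E. coli BL21(DE3) and plated with 0.1 mM IPTG at 37°C for 18 h. Input plasmids and genomic integration junctions were PCR-amplified and Illumina-sequenced, with two biological output replicates and four wild-type barcodes as reference. Relative integration efficiency is output/input barcode abundance fold change, normalised to wild-type barcodes and log-transformed.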

[2] = variants of: B1; test: relative integration efficiency (T-RL orientation) vs wild-type transposon end (log2 (normalized fold change)); transposon end mutated: left end; higher = more efficient transposition; conditions: with VchCAST RNA-guided transposition machinery (E. coli BL21(DE3) host, lacZ target)
In short: as §1

| Variant | relative integration efficiency (log2) [1] | relative integration efficiency (log2) [2] |
| --- | --- | --- |
| CG A101C A102C | -1.64 ± 0.96 | -1.55 ± 0.55 |
| CG A101G | -1.62 ± 1.1 | -1.22 ± 0.47 |
| CG A101T | -0.501 ± 0.29 | -0.599 ± 0.23 |
| CG A101T A102T | -0.713 ± 0.59 | -0.513 ± 0.27 |
| CG A102C | -1.3 ± 0.53 | -1.12 ± 0.46 |
| CG A102G | -1.58 ± 1.1 | -0.825 ± 0.55 |
| CG A102T | 0.323 ± 0.19 | -0.123 ± 0.24 |
| CG A107C | -0.569 ± 1.1 | -0.425 ± 0.35 |
| CG A107C T108G | -0.997 ± 1.2 | -1.01 ± 0.6 |
| CG A107C T108G A109C T110G | -2.3 ± 1.2 | -1.64 ± 0.79 |
| CG A107G | -0.592 ± 0.8 | -0.554 ± 0.26 |
| CG A107T | -0.794 ± 0.79 | -0.795 ± 0.44 |
| CG A107T T108A | -0.991 ± 0.38 | -0.981 ± 0.55 |
| CG A107T T108A A109T T110A | -0.765 ± 0.3 | -0.783 ± 0.46 |
| CG A109C | 0.0163 ± 0.22 | -0.193 ± 0.42 |
| CG A109C T110G | -1.25 ± 1.3 | -0.936 ± 0.53 |
| CG A109C T110G T111G T112G | -1.67 ± 0.36 | -1.4 ± 0.41 |
| CG A109G | -0.737 ± 0.88 | -0.662 ± 0.16 |
| CG A109T | 0.223 ± 0.47 | 0.209 ± 0.39 |
| CG A109T T110A | -0.674 ± 0.43 | -0.271 ± 0.27 |

| Variant | relative integration efficiency (log2) [1] | relative integration efficiency (log2) [2] |
| --- | --- | --- |
| CG A109T T110A T111A T112A | -1.2 ± 0.55 | -1.22 ± 0.46 |
| CG A118C | 0.243 ± 0.42 | -0.0886 ± 0.026 |
| CG A118C A119C | 0.178 ± 0.4 | -0.00591 ± 0.078 |
| CG A118C A119C T120G C121A G122T A123C G124T T125G | -0.0272 ± 0.24 | 0.0769 ± 0.16 |
| CG A118G | -0.0561 ± 0.73 | -0.144 ± 0.097 |
| CG A118T | -0.185 ± 0.24 | -0.0188 ± 0.11 |
| CG A118T A119T | 0.266 ± 0.26 | -0.158 ± 0.014 |
| CG A119C | 0.11 ± 0.18 | -0.107 ± 0.1 |
| CG A119C T120G | -0.429 ± 1.1 | -0.131 ± 0.072 |
| CG A119C T120G C121A G122T A123C G124T T125G | -0.964 ± 0.063 | -0.304 ± 0.022 |
| CG A119G | 0.273 ± 0.044 | 0.0234 ± 0.071 |
| CG A119T | 0.893 ± 0.42 | 0.51 ± 0.29 |
| CG A119T T120A | -0.0736 ± 0.29 | -0.226 ± 0.056 |
| CG A123C G124T T125G | -0.277 ± 0.038 | -0.171 ± 0.067 |
| CG C14A | -0.739 ± 0.55 | -0.546 ± 0.32 |
| CG C14A A15C | -0.0841 ± 0.4 | -0.0319 ± 0.34 |
| CG C14A A15C A16C C17A | -1.81 ± 1 | -1.38 ± 0.6 |
| CG C14A C68A C94A | -1.29 ± 1.1 | -0.864 ± 0.51 |
| CG C14G | -0.527 ± 0.35 | -0.0895 ± 0.33 |
| CG C14G A15T | -1.58 ± 0.72 | -0.642 ± 0.37 |

| Variant | relative integration efficiency (log2) [1] | relative integration efficiency (log2) [2] |
| --- | --- | --- |
| CG C14G A15T A16T C17G | -1.31 ± 0.38 | -1.26 ± 0.49 |
| CG C14G C68G C94G | -2.2 ± 0.43 | -2.49 ± 1.3 |
| CG C14T | 0.167 ± 0.37 | -0.295 ± 0.18 |
| CG C17A | 0.131 ± 0.49 | 0.0401 ± 0.23 |
| CG C17A C18A | -1.03 ± 1 | -1.15 ± 0.71 |
| CG C17A C18A A19C T20G | -3.01 ± 0.42 | -2.69 ± 0.85 |
| CG C17A C71A C97A | -0.871 ± 0.35 | -1.21 ± 0.59 |
| CG C17G | 0.155 ± 0.37 | -0.344 ± 0.25 |
| CG C17G C18G | -0.437 ± 0.49 | -0.313 ± 0.33 |
| CG C17G C18G A19T T20A | -1.28 ± 0.64 | -1.56 ± 0.94 |
| CG C17G C71G C97G | -1.57 ± 1 | -1.28 ± 0.76 |
| CG C17T | -0.0678 ± 0.41 | -0.0235 ± 0.16 |
| CG C18A | 0.107 ± 0.17 | -0.181 ± 0.016 |
| CG C18A A19C | -1.46 ± 0.83 | -1.68 ± 0.79 |
| CG C18A A19C T20G A21C | -2.8 ± 0.18 | -3.18 ± 0.65 |
| CG C18A C72A C98A | -1.73 ± 0.24 | -1.91 ± 0.81 |
| CG C18G | 0.0813 ± 0.047 | 0.259 ± 0.083 |
| CG C18G A19T | -1.25 ± 0.29 | -1.13 ± 0.5 |
